This test concerns the target human SLC15A4 of the SLC15A4/ALFA_Nanobody/C5 complex (cryo-EM sample) (human) (UniProt Q8N697). As to the kind of experiment: cryo-EM structure; purified SLC15A4/ALFA_Nanobody/C5 complex, 10 µM C5 in all buffers and 100 µM added to peak SEC fractions, 15 mg/ml; 2D averages showed dimeric and monomeric forms; the dimer resolved at 2.50 Å.

Substance “human SLC15A4 of the SLC15A4/ALFA_Nanobody/C5 complex (cryo-EM sample) (from UniProt Q8N697 1-577) (natural protein)” returned a stoichiometry N of 2.
